“Also recorded” adds a separate entry of the source. Like-named read-outs stand apart in the source and are kept apart here.
Tests used:
[1] = test system: Lewis rats with adjuvant-induced arthritis; conditions: rat, in vivo
[2] = test system: Balb/C mice with TNBS colitis; assay type: in vivo, mouse; conditions: for TNBS-induced weight loss: Example 15, 8 mg/kg after sensitization and on day 1, day 3, PBS treated animals 15%, FIG. 24
Description: Balb/C mice were sensitized with 160 μL of the haptenizing agent TNBS (Sigma-Aldrich, St. Louis, Mo.) at a concentration of 2.5% in 50% ethanol by skin painting. A week later, 120 μl of 1% TNBS in 50% ethanol was administered intrarectally via a 3.5-French catheter. Mice were sacrificed 3 days after intrarectal TNBS administration. Animals were weighed at the time of sensitization, intrarectal administration and every day following such until sacrifice. Clinical assessment was carried out by evaluating weight loss and histopathology of the colon tissue post mortem.
Tissues were fixed in phosphate buffered saline containing 4% formalin and embedded in paraffin. Sections (5 μm) were stained with haematoxylin and eosin. The degree of inflammation was assessed by a blinded pathologist using the following scoring system from 0-4: 0, no signs of inflammation; 1, low level of leucocyte infiltration; 2, moderate level of leucocyte infiltration; 3, high level of leucocyte infiltration, high vascular density, thickening of bowel wall; 4, transmural infiltrations, loss of goblet cells, high vascular density, strong bowel wall thickening, edema.
Twenty Balb/C mice were sensitized via TNBS skin-painting (designated day −7), followed by intrarectal administration of TNBS a week later (designated day 0). The humanized VH2/VK3 antibody (200 μg) was administered at three time points (−6, −2, +1) via i.p. injection to treated animals which were compared with untreated control animals. All the animals were weighed at the time of sensitization, intrarectal administration and every day following such. The animals were sacrificed three days following intrarectal administration (designated +3) following significant weight loss (>5%) in the control group and the colon tissue was removed and sent for histopathological analysis.
Balb/C mice were sensitized via TNBS skin-painting (Day −7), followed by intrarectal administration of TNBS a week later (designated as day 0). The VH2/VK3 variant (8 mg/kg), Rituximab (8 mg/kg) or PBS, were administered following sensitization and on day 1 following intrarectal induction. The mice were weighed at the time of sensitization, intrarectal administration and every day following such. The animals were sacrificed 3 days following intrarectal administration (Day 3) following significant weight loss in the control groups.

human PBMC = assay type: cell-based
Balb/C mice = conditions: mouse, in vivo
[3] = test system: human macrophages (CD14+ cells); assay type: cell-based; conditions: FITC conjugated, 10 μg; double stained with anti-CD14; FIGS. 12, 16
[4] = test system: DBA/1 mice with collagen-induced arthritis; assay type: in vivo, mouse; conditions: single dose i.p. 200 μg upon clinical signs; vs TBS; FIG. 20
Description: Nine week old male DBA/1 mice (Harlan Laboratories, Israel) were injected s.c. at the base of the tail with 200 μg collagen type II emulsified in CFA (Difco). Three weeks later mice were boosted s.c. with the same concentration of collagen II. The severity of arthritis was assessed daily by measuring feet diameter of hind and fore paws by caliper by a blinded observer. As controls, the inventors measured 4 mice of about the same age that were not injected with collagen. The mean of the healthy mice served as a “cut-off” measurement. Starting from day 5 after the boost injection, every mouse with a score value above the average of the healthy mice (in one paw or more) was assigned to one of the treatment groups.
The inventors next examined the in vivo effects of the humanized VH2/VK3 anti-peptide-6 antibody in an additional experimental model of arthritis, the Collagen-Induced Arthritis (CIA) model in mice. Male DBA/1 mice were immunized on day 0 with collagen type II emulsified in CFA to induce arthritis, and a boost dose given on day 21.85% of the mice developed CIA within 2.5 weeks after the boost injection. Upon clinical signs of disease, the mice were treated with a single dose of either the humanized VH2/VK3 anti-peptide-6 antibody (i.p. 200 μg) or tris buffered saline (TBS).

[5] = 11-day period, FIG. 25
[6] = molecular target: T1, adenylyl cyclase-associated protein 1 (CAP1) (Homo sapiens, UniProt Q01518); experiment: Western blot on over-expressed His-tagged CAP1; assay type: binding; conditions: control His CREB; FIG. 13
T1 construct: made in house; host or cells: E. coli BL21 (modified pET22b vector; cDNA from THP-1 cells)

[7] = test system: Lewis rats with adjuvant-induced arthritis; assay type: in vivo, rat; conditions: IP 1 mg/kg days 11 and 15, serum day 19, FIG. 19
Description: Evaluation of cytokine levels in cell culture or in the serum of animals was carried out utilizing specific kits from R&D SYSTEMS, Minneapolis Minn. USA (according to the manufacturer's instructions).
The inventors furthermore evaluated the in vivo effects of the humanized anti-peptide-6 antibody on the induction of IL-10 secretion in the serum of animals having established arthritis. Lewis rats were immunized with MT/CFA on day 0. Rats were treated on days 11 and 15 with humanized VH2/VK3 (IP 1 mg/kg), or with PBS for comparison. Severity of arthritis was evaluated by clinical scoring, and animals were sacrificed on day 19 and serum levels of various cytokines were measured by ELISA (R&D systems). Serum of healthy untreated animals served as a control.

[8] = test system: PBMC collected from rheumatoid arthritis (RA) patients; assay type: cell-based, human; conditions: 200 μg, 48 hours, two RA patients, vs without antibody; FIG. 21
Description: PBMC were collected from two RA patients and incubated for 48 hours with or without 200 μg of the humanized anti-peptide-6 antibody (VH2/VK3). Supernatants were then assayed for secreted IL-10 content.

T1 sequence (Q01518 whole entry): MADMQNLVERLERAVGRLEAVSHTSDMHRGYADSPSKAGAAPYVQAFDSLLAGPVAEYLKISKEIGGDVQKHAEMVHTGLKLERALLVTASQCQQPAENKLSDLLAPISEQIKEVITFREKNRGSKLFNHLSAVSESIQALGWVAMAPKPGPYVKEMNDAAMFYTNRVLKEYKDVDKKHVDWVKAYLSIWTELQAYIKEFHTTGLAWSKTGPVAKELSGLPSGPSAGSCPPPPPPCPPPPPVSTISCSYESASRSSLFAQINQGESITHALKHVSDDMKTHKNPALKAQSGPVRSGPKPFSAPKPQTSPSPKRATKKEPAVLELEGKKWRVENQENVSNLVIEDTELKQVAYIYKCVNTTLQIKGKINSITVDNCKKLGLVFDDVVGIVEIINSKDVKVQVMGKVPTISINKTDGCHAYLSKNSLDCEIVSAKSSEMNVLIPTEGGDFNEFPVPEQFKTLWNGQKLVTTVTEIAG

Rituximab
pathology findings of joints [1]: marked fibrosis and formation of reactive periosteal bone | severity of AA (arthritis score) ([1]; ip, 5 mg/kg): no effect on AA | TNBS-induced weight loss [2]: 14%

B1: VH2/VK3: humanized anti-peptide-6 IgG1; heavy chain variable region SEQ ID NO: 21, light chain variable region SEQ ID NO: 26 (antibody, V domains shown)
VH: QVTLKESGPALVKPTQTLTLTCSFSGFSLSTSNMGVGWIRQPAGKGLEWLLHILWNDSKYYNPALKSRLTISKDTYKNQVVLTMTNMDPVDTATYYCARMGGYYGNYGYYAMDYWGQGTLVTVSS
VL: QIVLTQSPATLSLSPGERATLSCTASSSVSSSYLHWYQQKPGKAPKLWIYSTSNLASGVPSRFSGSGSGTDYTLTISSLQPEDFATYYCHQYHRSPPTFGQGTKLEIK
modifications: IgG1 constant regions; VH2 amino acid sequence; VK3 amino acid sequence
severity of established AA (arthritis score) ([1]; ip, 2.5 mg/kg): effective in significantly suppressing the severity of established AA | IL-10 induction in PBMC cultures (human PBMC): best IL-10 induction; also recorded: induced higher IL-10 expression than the other variants | IL-10 secreted from human PBMC (human PBMC): significant increase in IL-10 secreted | pathological findings (heart, liver, lung, spleen, kidney) (Balb/C mice): no significant pathological findings | binding to CD14 positive cells (FACS) [3]: binds to most of the CD14 positive cells | severity of established CIA (feet diameter) [4]: effective in significantly suppressing the severity of established CIA | serum half-life ([5]; 500 μg i.p. on day 0): approximately 10 days | serum half-life ([5]; 500 μg s.c. on day 0): approximately 10 days | recognition of His-tagged CAP1 (Western blot) [6]: recognized the His-tagged CAP1 protein specifically | inflammatory response in the colon (microscopic disease score, histology) ([2]; Example 14, 200 μg i.p. at days -6, -2, +1, sacrifice day 3, p<0.05 vs control, FIG. 23): Minimal inflammatory response | weight loss in TNBS colitis ([2]; Example 14, 200 μg i.p. at days -6, -2, +1, vs untreated control, FIG. 22): effective in suppressing the weight loss | TNBS-induced weight loss [2]: 3.5% | serum IL-1 levels ([7]; 1 rat per group): remain negligible in all groups | serum IL-17 levels ([7]; 1 rat per group): remain negligible in all groups | serum TNFα levels ([7]; 1 rat per group): remain negligible in all groups | serum IL-4 levels [7]: remain negligible in all groups | serum IFN-γ levels ([7]; vs PBS): reduction | serum IL-6 levels ([7]; vs PBS): reduction | serum IL-10 levels ([7]; vs PBS): clear induction of IL-10 levels | IL-10 secreted by RA patients' PBMC [8]: robust increase in the amount of IL-10 secreted

Reference: patent US8680241B2 (priority 2009, dated 2014)
